Assay results reported in publication PMC11965559 (Nature Communications, 2024).
Where two headings read alike, the source gives them in different places.

B1: Umini-3'ss (ssRNA)
RNA: GGGAAGUGUUACAGCUCUUUUAGAAUUUUUGGAGUAGGCUUUCUGGCUUUUCAGGCCUUUCGGGGA
B2: Umini-ΔSm-snRNA (structured_RNA)
RNA: GGGAAGUGUUACAGCUCUUUUAGAACCCCCGGAGUAGGCUUUCUGGCUUUUCACCGGAAAGCCCCU
B3: U4-snRNA (structured_RNA)
RNA: GGAUCCUUAUGCACGGGAAAUACGCAUAUCAGUGAGGAUUCGUCCGAGAUUGUGUUUUUGCUGGUUGAAAUUUAAUUAUAAACCAGACCGUCUCCUCAUGGUCAAUUCGGUGUUCGCUUUUGAAUACUUCAAGACUAUGUAAAUUUUUGGAAUACCUUU

What was measured:
Experiment in all cases: EMSA
[1] = molecular target: SmD1 (1-109);SmD2;SmF;SmE;SmG;Brr1 (Saccharomyces cerevisiae;Saccharomyces …, UniProt Q02260;Q06217;P54999;Q12330;P40204;Q99177 1-109;1-110;1-86;1-94;1-77;1-341, |||||)
[2] = molecular target: T1, SmD1 (1-109);SmD2;SmF;SmE;SmG;SmD3 (1-88);SmB (1-105) (Saccharomyces cerevisiae;Saccharomyces …, UniProt Q02260;Q06217;P54999;Q12330;P40204;P43321;P40018 …, ||||||)
[3] = molecular target: T2, SmD1 (1-109);SmD2;SmF;SmE;SmG (Saccharomyces cerevisiae;Saccharomyces …, UniProt Q02260;Q06217;P54999;Q12330;P40204 1-109;1-110;1-86;1-94;1-77, ||||)
[4] = molecular target: SmD1 (1-109);SmD2;SmF;SmE;SmG;Brr1;SmD3 (1-88);SmB (1-105) (Saccharomyces cerevisiae;Saccharomyces …, UniProt Q02260;Q06217;P54999;Q12330;P40204;Q99177;P43321;P40018 …, |||||||)
[5] = molecular target: T1, SmD1 (1-109);SmD2;SmF;SmE;SmG;SmD3 …; remark: listed apart in the source
[6] = molecular target: T2, SmD1 (1-109);SmD2;SmF;SmE;SmG; remark: listed apart in the source
[7] = molecular target: T1, SmD1 (1-109);SmD2;SmF;SmE;SmG;SmD3 …; remark: listed apart in the source

Binder | binding result [1] | binding result [2] | binding result [3] | binding result [4] | binding result [5] | binding result [6] | binding result [7]
B1 | binds | binds | binds |  |  |  | 
B2 | no binding |  |  | no binding | no binding | no binding | 
B3 | binds |  |  |  |  |  | binds
